Measured values taken from patent US7786083B2, “Metastin derivatives and use thereof” (Takeda Pharmaceutical Company Limited, priority 2006, dated 2010).
[ ]: non-standard residue; d: D form. Phe(3-Me) = Cc1cccc(C[C@H](N)C(=O)O)c1; Phe(4-Me) = Cc1ccc(C[C@H](N)C(=O)O)cc1; Phe(2-Me) = Cc1ccccc1C[C@H](N)C(=O)O; Arg(Me) = CNC(=N)NCCC[C@H](N)C(=O)O; Dap(CONH2) = NC(=O)NC[C@H](N)C(=O)O; Ala(cPr) = N[C@@H](CC1CC1)C(=O)O; Hyp = O=C(O)[C@@H]1C[C@@H](O)CN1; αMeF = C[C@](N)(Cc1ccccc1)C(=O)O; 2Pal = N[C@@H](Cc1ccccn1)C(=O)O; 3Pal = N[C@@H](Cc1cccnc1)C(=O)O; 4Pal = N[C@@H](Cc1ccncc1)C(=O)O; Cha = N[C@@H](CC1CCCCC1)C(=O)O

B1: des(1)-Ac-[D-Tyr2,Hyp3,Thr5,αMePhe6,Arg(Me)9,Trp10]MS10 (peptide)
peptide: Ac-[dY][Hyp]NT[αMeF]GL[Arg(Me)]W-NH2
SMILES: CNC(=N)NCCC[C@H](NC(=O)[C@H](CC(C)C)NC(=O)CNC(=O)[C@](C)(Cc1ccccc1)NC(=O)[C@@H](NC(=O)[C@H](CC(N)=O)NC(=O)[C@@H]1C[C@@H](O)CN1C(=O)[C@@H](Cc1ccc(O)cc1)NC(C)=O)[C@@H](C)O)C(=O)N[C@@H](Cc1c[nH]c2ccccc12)C(N)=O

Target: metastin receptor (OT7T175) stably expressed on CHO/dhfr- cells (human or rat, not given)
Assay: cell-based or functional assay

Row | Specific Activity (EC50 of test compound based on EC50 of Metastin (45-54)); agonist activity, intracellular calcium ion level, FLIPR (ratio to Metastin (45-54)) | Molecule
1 | 0.5 | des(1)-Ac-[D-Tyr2,Hyp3,Thr5,Cha6,Ala7,Arg(Me)9,Trp10]MS10 (peptide)
2 | 1.3 | des(1)-Ac-[D-Tyr2,Hyp3,Thr5,Dap7,Arg(Me)9,Trp10]MS10 (peptide)
3 | 0.6 | des(1)-Ac-[D-Tyr2,Hyp3,Thr5,Phe6Ψ(CH2CH2)AzaGly7,Arg(Me)9,Trp10]MS10 (peptide)
4 | 0.4 | des(1)-Ac-[D-Tyr2,Pro(4F)3,Thr5,Cha6,Ala(cPr)8,Arg(Me)9,Trp10]MS10 (peptide)
5 | 2.9 | Ac-[dY][Hyp]NTFGL[Arg(Me)]W-NH2 (also: Gly6-Leu7 -CONH- replaced by -CH2NH-) [des(1)-Ac-[D-Tyr2,Hyp3,Thr5,Gly7Ψ(CH2NH)Leu8,Arg(Me)9,Trp10]MS10]
6 | 0.9 | Ac-[dY][Hyp]NT[Phe(4-Me)]GL[Arg(Me)]W-NH2 [des(1)-Ac-[D-Tyr2,Hyp3,Thr5,Phe(4Me)6,Arg(Me)9,Trp10]MS10]
7 | 1.2 | Ac-[dY][Hyp]NTFGL[Arg(Me)]W-NH2 (also: Phe5-Gly6 amide bond replaced by -CH(OH)-CH2- ((S)-CHOH)) [des(1)-Ac-[D-Tyr2,Hyp3,Thr5,Phe6Ψ((S)CHOH-CH2)Gly7,Arg(Me)9,Trp10]MS10]
8 | 0.6 | Ac-[dY][Hyp]NTFSL[Arg(Me)]W-NH2 [des(1)-Ac-[D-Tyr2,Hyp3,Thr5,Ser7,Arg(Me)9,Trp10]MS10]
9 | 1.4 | Ac-[dY][Hyp]NTFGL[Arg(Me)]W-NH2 (also: Phe5-Gly6 -CONH- replaced by (R)-CH(OH)-(E)CH= to Gly α carbon) [des(1)-Ac-[D-Tyr2,Hyp3,Thr5,Phe6Ψ((R)CHOH-(E)CH═)Gly7,Arg(Me)9,Trp10]MS10]
10 | 1.7 | Ac-[dY][Hyp]NTFGL[Arg(Me)]W-NH2 (also: Phe5-Gly6 amide bond replaced by -CH(OH)-CH= ((S)-CHOH, (E) alkene)) [des(1)-Ac-[D-Tyr2,Hyp3,Thr5,Phe6Ψ((S)CHOH-(E)CH═)Gly7,Arg(Me)9,Trp10]MS10]
11 | 1.1 | Ac-[dY][Hyp]NTFGL[Arg(Me)]W-NH2 (also: Phe5-Gly6 amide bond replaced by -COCH2-) [des(1)-Ac-[D-Tyr2,Hyp3,Thr5,Phe6Ψ(COCH2)Gly7,Arg(Me)9,Trp10]MS10]
12 | 1.2 | Ac-[dY][Hyp]NT[2Pal]GL[Arg(Me)]W-NH2 [des(1)-Ac-[D-Tyr2,Hyp3,Thr5,Pya(2)6,Arg(Me)9,Trp10]MS10]
13 | 3.8 | B1
14 | 0.5 | Ac-[dY][Hyp][Dap(CONH2)]TFGL[Arg(Me)]W-NH2 [des(1)-Ac-[D-Tyr2,Hyp3,Alb4,Thr5,Arg(Me)9,Trp10]MS10]
15 | 1.3 | Ac-[dY][Hyp]NTFGL[Arg(Me)]W-NH2 (also: Phe5-Gly6 amide bond replaced by -CH2CH2-) [des(1)-Ac-[D-Tyr2,Hyp3,Thr5,Phe6Ψ(CH2CH2)Gly7,Arg(Me)9,Trp10]MS10]
16 | 1.7 | Ac-[dY][Hyp]NTFVL[Arg(Me)]W-NH2 [des(1)-Ac-[D-Tyr2,Hyp3,Thr5,Val7,Arg(Me)9,Trp10]MS10]
17 | 0.8 | Ac-[dY][Hyp]NTFGL[Arg(Me)]W-NH2 (also: Phe5-Gly6 -CONH- replaced by (R)-CH(OH)-CH2-) [des(1)-Ac-[D-Tyr2,Hyp3,Thr5,Phe6Ψ((R)CHOH-CH2)Gly7,Arg(Me)9,Trp10]MS10]
18 | 0.6 | Ac-[dY]ENT[Cha]GL[Arg(Me)]W-NH2 [des(1)-Ac-[D-Tyr2,Glu3,Thr5,Cha6,Arg(Me)9,Trp10]MS10]
19 | 0.9 | Ac-[dY][Hyp]NT[3Pal]GL[Arg(Me)]W-NH2 [des(1)-Ac-[D-Tyr2,Hyp3,Thr5,Pya(3)6,Arg(Me)9,Trp10]MS10]
20 | 0.9 | Ac-[dY][Hyp]NT[4Pal]GL[Arg(Me)]W-NH2 [des(1)-Ac-[D-Tyr2,Hyp3,Thr5,Pya(4)6,Arg(Me)9,Trp10]MS10]
21 | 0.7 | Ac-[dY][Hyp]NTFGL[Arg(Me)]W-NH2 (also: Phe5-Gly6 -CONH- replaced by (E) CH=CH) [des(1)-Ac-[D-Tyr2,Hyp3,Thr5,Phe6Ψ((E)CH═CH)Gly7,Arg(Me)9,Trp10]MS10]
22 | 0.5 | Ac-[dY][Hyp]NTFAL[Arg(Me)]W-NH2 [des(1)-Ac-[D-Tyr2,Hyp3,Thr5,Ala7,Arg(Me)9,Trp10]MS10]
23 | 0.7 | Ac-[dY][Hyp]NT[Phe(2-Me)]GL[Arg(Me)]W-NH2 [des(1)-Ac-[D-Tyr2,Hyp3,Thr5,Phe(2Me)6,Arg(Me)9,Trp10]MS10]
24 | 1.2 | Ac-[dY][Hyp]NTFGL[Arg(Me)]W-NH2 [des(1)-Ac-[D-Tyr2,Hyp3,Thr5,Arg(Me)9,Trp10]MS10]
25 | 0.5 | Ac-[dY]ENTFGL[Arg(Me)]W-NH2 [des(1)-Ac-[D-Tyr2,Glu3,Thr5,Arg(Me)9,Trp10]MS10]
26 | 1.9 | Ac-[dY][Hyp]NT[Ala(cPr)]GL[Arg(Me)]W-NH2 [des(1)-Ac-[D-Tyr2,Hyp3,Thr5,Ala(cPr)6,Arg(Me)9,Trp10]MS10]
27 | 0.8 | Ac-[dY][Hyp]NT[Phe(3-Me)]GL[Arg(Me)]W-NH2 [des(1)-Ac-[D-Tyr2,Hyp3,Thr5,Phe(3Me)6,Arg(Me)9,Trp10]MS10]
28 | 0.5 | Ac-[dY][Hyp]NTFGL[Arg(Me)]W-NH2 (also: Phe5-Gly6 amide bond replaced by -CH2O-) [des(1)-Ac-[D-Tyr2,Hyp3,Thr5,Phe6Ψ(CH2O)Gly7,Arg(Me)9,Trp10]MS10]
